# From US12098175B2, “Peptide inhibitors targeting the CXCL12/HMGB1 interaction and uses thereof” (INSTITUTE FOR RESEARCH IN BIOMEDICINE, priority 2019, dated 2024)
# Where two headings read alike, the source gives them in different places. Where no end group is shown, it is not given here.
# Legend:
# CXCL12 = CXCL12 (Homo sapiens, UniProt P48061); experiment: In vitro chemotaxis: migration induced by CXCL12 alone, 300.19 PreB cells expressing human CXCR4; type: cell-based, murine; conditions: peptides at 100 μM; CXCL12 1 nM; 300.19 PreB cells with human CXCR4
# Procedure: Further experiments were performed with CXCL12 alone to identify peptides affecting cell migration induced by CXCL12 alone.
# Briefly, chemotaxis was performed using Boyden chambers with 5 μm pore membranes. […] 200 μM glycyrrhizin were used as positive control.
# [1] = target: T1, CXCL12/HMGB1 heterocomplex (Homo sapiens, UniProt P09429); experiment: In vitro chemotaxis (Boyden chamber): CXCL12/HMGB1-induced migration of 300.19 PreB cells expressing human CXCR4; type: cell-based, murine; conditions: peptides at 100 μM; CXCL12 1 nM, HMGB1 300 nM; compared with glycyrrhizin 200 μM; 300.19 PreB cells with human CXCR4
# T1 sequence (P09429 1-215): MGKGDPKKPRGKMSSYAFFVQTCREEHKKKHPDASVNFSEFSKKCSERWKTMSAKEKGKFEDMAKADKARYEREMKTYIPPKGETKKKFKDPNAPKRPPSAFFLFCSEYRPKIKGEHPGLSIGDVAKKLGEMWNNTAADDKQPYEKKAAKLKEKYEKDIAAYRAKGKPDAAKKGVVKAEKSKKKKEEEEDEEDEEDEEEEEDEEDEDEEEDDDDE
# Procedure: The 13 identified and synthesized peptides were tested in in vitro chemotaxis, to assess their efficacy as inhibitors of the CXCL12/HMGB1-induced migration, on a murine cell line expressing the human CXCR4.
# All peptides, at 100 μM, were incubated with CXCL12 and HMGB1 before assessing chemotaxis, to evaluate their ability to interfere with the heterocomplex formation, and inhibit the synergistic effect of HMGB1.
# Solubility in PBS = type: physicochemical
# HMGB1 [2] = target: T2, HMGB1 (Homo sapiens, UniProt P09429); conditions: literature value (Mollica et al. 2007); read-out: Kd reported for glycyrrhizin; cited from earlier work
# T2 sequence (P09429 1-215): T1 sequence (P09429 1-215)
# HMGB1 [3] = target: T2, HMGB1; experiment: Binding affinity to HMGB1 by microscale thermophoresis (MST); conditions: for Kd (μM), equilibrium dissociation constant: MST, Example 6 (Table 4), highest peptide concentration 500 μM
# Procedure: The protein and the peptide were incubated for 15 minutes at room temperature, to allow binding. MST analysis was performed using premium-coated capillary tubes on a NanoTemper® instrument using the following experimental settings: LED power of 5% (for fluorescence excitation), and laser power 40% (to create temperature gradient). Kd values were calculate from compound concentration-dependent changes in normalized fluorescence (Fnorm). Independent experiments were performed to calculate the Kd value. Data were analyzed by the NanoTemper® analysis software.
# MST analysis was performed using premium-coated capillary tubes on a NanoTemper instrument using the following experimental settings: LED power of 5% (for fluorescence excitation), and laser power 40% (to create temperature gradient). Kd values were calculated from compound concentration-dependent changes in normalized fluorescence (Fnorm). Independent experiments were performed to calculate the Kd value. Data were analyzed by the NanoTemper analysis software.
# CXCL12, sequence (P48061 22-93, species assumed): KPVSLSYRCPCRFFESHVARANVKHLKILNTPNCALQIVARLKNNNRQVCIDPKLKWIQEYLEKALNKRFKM
Compound,Effect on cell migration induced by CXCL12 alone (CXCL12),Inhibition of the enhanced migration induced by the CXCL12/HMGB1 heterocomplex [1],also measured
HWTLANWCR (HBP07),do not affect CXCL12-induced cell migration,inhibit the enhanced migration induced by the CXCL12/HMGB1 heterocomplex more than glycyrrhizin at 200 μM,–
YHICWYGDY (HBP12),inhibit the migration induced by the chemokine alone,inhibit the enhanced migration induced by the CXCL12/HMGB1 heterocomplex more than glycyrrhizin at 200 μM,–
GYHYEAWIH [HBP08-A6],–,–,Solubility (Solubility in PBS): poorly soluble
CC1(C)[C@@H](O[C@H]2O[C@H](C(=O)O)[C@@H](O)[C@H](O)[C@H]2O[C@@H]2O[C@H](C(=O)O)[C@@H](O)[C@H](O)[C@H]2O)CC[C@]2(C)[C@H]3C(=O)C=C4[C@@H]5C[C@@](C)(C(=O)O)CC[C@]5(C)CC[C@@]4(C)[C@]3(C)CC[C@@H]12 [glycyrrhizin],–,–,Kd (HMGB1 [2]): 125 µM
GYHYE [Pentapept-1],–,–,"Kd (μM), equilibrium dissociation constant (HMGB1 [3]): No binding*; Kd (μM), equilibrium dissociation constant (HMGB1 [3]; listed as pentapept-1): no binding was observed"
"ERWIH [Pentapept-2, ERWIH]",–,–,Kd (HMGB1 [3]): 200 ± 80 µM
WISNWILMW (HBP05),inhibit the migration induced by the chemokine alone,inhibit the enhanced migration induced by the CXCL12/HMGB1 heterocomplex more than glycyrrhizin at 200 μM,–
